Results taken from paper PMC9482650, “Quantitative fragmentomics allow affinity mapping of interactomes” (Nature Communications, 2022).

Columns and labels:
Assay in all cases: holdup assay
Design in all cases: key: below the threshold = too weak to quantify, mostly under pKd 3.1 to 4
SHANK1, Q9Y566 = target: T1, SHANK1, Q9Y566
T1 sequence (Q9Y566 658-767, limits assumed, looked up): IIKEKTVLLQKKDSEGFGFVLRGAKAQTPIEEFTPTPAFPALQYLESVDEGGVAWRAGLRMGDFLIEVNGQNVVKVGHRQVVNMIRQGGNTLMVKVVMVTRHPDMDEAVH

FRMPD2_2, Q68DX3 = target: FRMPD2_2, Q68DX3
Sequence of FRMPD2_2, Q68DX3 (Q68DX3 944-1038): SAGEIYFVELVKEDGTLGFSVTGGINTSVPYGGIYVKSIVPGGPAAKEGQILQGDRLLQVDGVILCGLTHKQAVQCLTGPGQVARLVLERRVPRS

DFNB31_1, Q9P202 = target: T2, DFNB31_1, Q9P202
T2 sequence (Q9P202 135-233, limits assumed, looked up): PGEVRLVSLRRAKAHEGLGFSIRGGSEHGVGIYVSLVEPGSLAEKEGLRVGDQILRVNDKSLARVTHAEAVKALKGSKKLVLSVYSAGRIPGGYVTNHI

MAGI2_5, Q86UL8 = target: MAGI2_5, Q86UL8
Sequence of MAGI2_5, Q86UL8 (Q86UL8 915-1017): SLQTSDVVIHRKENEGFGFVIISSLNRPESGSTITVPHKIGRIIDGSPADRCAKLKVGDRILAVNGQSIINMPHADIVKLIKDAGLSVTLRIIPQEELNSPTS

HTRA1, Q92743 = target: HTRA1, Q92743
Sequence of HTRA1, Q92743 (Q92743 360-477): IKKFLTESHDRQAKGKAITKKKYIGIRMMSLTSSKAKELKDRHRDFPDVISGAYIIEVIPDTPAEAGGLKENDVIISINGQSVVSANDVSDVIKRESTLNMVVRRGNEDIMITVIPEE

Inadl_2, Q8NI35 = target: Inadl_2, Q8NI35
Sequence of Inadl_2, Q8NI35 (Q8NI35 238-335): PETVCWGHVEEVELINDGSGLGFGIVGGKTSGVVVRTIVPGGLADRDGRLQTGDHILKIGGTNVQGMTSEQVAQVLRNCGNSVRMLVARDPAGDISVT

LIMK2, P53671 = target: LIMK2, P53671
Sequence of LIMK2, P53671 (P53671 143-248): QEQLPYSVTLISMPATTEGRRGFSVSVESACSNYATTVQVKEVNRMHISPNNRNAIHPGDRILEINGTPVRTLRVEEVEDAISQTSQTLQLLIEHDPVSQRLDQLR

NHERF4_4, Q86UT5 = target: NHERF4_4, Q86UT5
Sequence of NHERF4_4, Q86UT5 (Q86UT5 464-550): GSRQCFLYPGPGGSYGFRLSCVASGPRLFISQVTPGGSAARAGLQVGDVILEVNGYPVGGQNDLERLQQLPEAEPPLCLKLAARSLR

DLG2_2, Q15700 = target: DLG2_2, Q15700
Sequence of DLG2_2, Q15700 (Q15700 189-283): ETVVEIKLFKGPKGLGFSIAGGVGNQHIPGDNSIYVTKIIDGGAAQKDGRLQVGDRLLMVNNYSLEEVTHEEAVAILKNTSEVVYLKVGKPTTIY

RAPGEF6, Q8TEU7 = target: T3, RAPGEF6, Q8TEU7
T3 sequence (Q8TEU7 525-625, limits assumed, looked up): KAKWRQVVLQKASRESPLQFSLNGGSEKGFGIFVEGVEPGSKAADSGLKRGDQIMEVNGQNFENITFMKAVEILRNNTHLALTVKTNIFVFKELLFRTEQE

SNX27, Q96L92 = target: SNX27, Q96L92
GRIP1_3, Q9Y3R0 = target: T4, GRIP1_3, Q9Y3R0
T4 sequence (Q9Y3R0 247-346, limits assumed, looked up): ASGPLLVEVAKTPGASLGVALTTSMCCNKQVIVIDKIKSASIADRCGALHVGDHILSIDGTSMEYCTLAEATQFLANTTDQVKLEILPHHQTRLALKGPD

NHERF3_3, Q5T2W1 = target: T5, NHERF3_3, Q5T2W1
T5 sequence (Q5T2W1 238-333, limits assumed, looked up): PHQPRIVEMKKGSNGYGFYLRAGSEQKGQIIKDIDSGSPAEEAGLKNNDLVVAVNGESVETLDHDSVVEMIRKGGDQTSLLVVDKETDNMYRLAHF

PARD3_3, Q8TEW0 = target: PARD3_3, Q8TEW0
Sequence of PARD3_3, Q8TEW0 (Q8TEW0 582-685): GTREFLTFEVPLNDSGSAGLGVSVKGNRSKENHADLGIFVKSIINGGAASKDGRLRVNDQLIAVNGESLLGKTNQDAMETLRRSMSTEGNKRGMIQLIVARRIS

LDB3, O75112 = target: LDB3, O75112
Sequence of LDB3, O75112 (O75112 1-94): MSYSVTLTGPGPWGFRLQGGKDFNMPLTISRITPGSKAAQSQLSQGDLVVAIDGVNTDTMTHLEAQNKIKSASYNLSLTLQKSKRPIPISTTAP

APBA3_1, O96018 = target: T6, APBA3_1, O96018
T6 sequence (O96018 389-490, limits assumed, looked up): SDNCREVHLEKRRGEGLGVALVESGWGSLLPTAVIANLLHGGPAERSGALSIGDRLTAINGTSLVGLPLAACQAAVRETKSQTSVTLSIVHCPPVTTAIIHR

GRID2IP_1, A4D2P6 = target: GRID2IP_1, A4D2P6
Sequence of GRID2IP_1, A4D2P6 (A4D2P6 1-87): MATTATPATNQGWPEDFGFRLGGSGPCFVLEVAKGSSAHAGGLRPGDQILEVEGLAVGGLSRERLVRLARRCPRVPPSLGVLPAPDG

Inadl_6, Q8NI35 = target: Inadl_6, Q8NI35
Sequence of Inadl_6, Q8NI35 (Q8NI35 1058-1167): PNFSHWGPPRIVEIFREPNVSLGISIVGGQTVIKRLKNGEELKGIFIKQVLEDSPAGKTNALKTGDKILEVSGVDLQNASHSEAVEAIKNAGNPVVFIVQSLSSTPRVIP

GRASP, Q7Z6J2 = target: GRASP, Q7Z6J2
Sequence of GRASP, Q7Z6J2 (Q7Z6J2 96-193): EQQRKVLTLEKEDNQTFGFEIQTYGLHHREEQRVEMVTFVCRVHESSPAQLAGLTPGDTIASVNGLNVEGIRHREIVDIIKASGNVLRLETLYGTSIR

LIN7C, Q9NUP9 = target: T7, LIN7C, Q9NUP9
T7 sequence (Q9NUP9 88-185, limits assumed, looked up): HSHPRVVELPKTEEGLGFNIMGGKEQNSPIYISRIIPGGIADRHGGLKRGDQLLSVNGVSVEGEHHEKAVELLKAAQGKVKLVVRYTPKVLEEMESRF

MAGI3_2, Q5TCQ9 = target: MAGI3_2, Q5TCQ9
Sequence of MAGI3_2, Q5TCQ9 (Q5TCQ9 398-503): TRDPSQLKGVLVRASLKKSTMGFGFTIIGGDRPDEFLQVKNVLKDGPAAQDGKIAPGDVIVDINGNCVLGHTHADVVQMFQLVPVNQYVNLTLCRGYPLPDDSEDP

HTRA4, P83105 = target: T8, HTRA4, P83105
T8 sequence (P83105 378-476, limits assumed, looked up): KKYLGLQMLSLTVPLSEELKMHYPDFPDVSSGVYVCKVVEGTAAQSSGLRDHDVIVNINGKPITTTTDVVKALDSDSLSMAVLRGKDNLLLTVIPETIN

CARD11, Q9BXL7 = target: T9, CARD11, Q9BXL7
T9 sequence (Q9BXL7 662-765, limits assumed, looked up): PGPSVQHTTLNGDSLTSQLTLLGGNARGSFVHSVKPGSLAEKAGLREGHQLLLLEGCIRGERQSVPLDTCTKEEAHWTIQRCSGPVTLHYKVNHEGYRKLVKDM

NHERF2_2, Q15599 = target: NHERF2_2, Q15599
Sequence of NHERF2_2, Q15599 (Q15599 142-238): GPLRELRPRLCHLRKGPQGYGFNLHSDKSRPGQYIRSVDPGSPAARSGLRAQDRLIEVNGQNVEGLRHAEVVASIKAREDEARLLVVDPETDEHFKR

MAGI2_2, Q86UL8 = target: MAGI2_2, Q86UL8
Sequence of MAGI2_2, Q86UL8 (Q86UL8 410-522): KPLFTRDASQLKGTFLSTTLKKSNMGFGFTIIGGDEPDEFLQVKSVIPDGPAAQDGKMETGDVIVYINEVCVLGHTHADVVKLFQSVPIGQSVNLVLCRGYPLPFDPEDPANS

GRIP2_4, Q9C0E4 = target: GRIP2_4, Q9C0E4
Sequence of GRIP2_4, Q9C0E4 (Q9C0E4 446-548): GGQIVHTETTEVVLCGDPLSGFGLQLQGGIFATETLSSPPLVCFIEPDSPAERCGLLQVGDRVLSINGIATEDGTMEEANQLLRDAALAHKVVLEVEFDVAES

GRIP2_7, Q9C0E4 = target: GRIP2_7, Q9C0E4
Sequence of GRIP2_7, Q9C0E4 (Q9C0E4 934-1023): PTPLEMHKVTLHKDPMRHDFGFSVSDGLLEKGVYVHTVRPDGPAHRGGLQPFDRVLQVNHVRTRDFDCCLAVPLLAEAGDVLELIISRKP

DLG4_1, P78352 = target: DLG4_1, P78352
Sequence of DLG4_1, P78352 (P78352 62-152): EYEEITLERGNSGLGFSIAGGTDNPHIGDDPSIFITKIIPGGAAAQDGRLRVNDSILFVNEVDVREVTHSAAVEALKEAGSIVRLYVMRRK

[1] = plain residues with an end cap or a label only (N-terminal biotin on a linker: ado-ado)
[2] = plain residues with an end cap or a label only (N-terminal biotin on a linker: ahx)
[3] = plain residues with an end cap or a label only (N-terminal biotin on a linker: (peg)3)

## QRPYRRGSEI [KCNJ18, B7U540]
SHANK1, Q9Y566; [1]
  pKd: below the threshold
FRMPD2_2, Q68DX3; [1]
  pKd: 3.73
DFNB31_1, Q9P202; [1]
  pKd: 3.9
MAGI2_5, Q86UL8; [1]
  pKd: below the threshold
HTRA1, Q92743; [1]
  pKd: 3.85
Inadl_2, Q8NI35; [1]
  pKd: below the threshold
LIMK2, P53671; [1]
  pKd: below the threshold
NHERF4_4, Q86UT5; [1]
  pKd: below the threshold
DLG2_2, Q15700; [1]
  pKd: below the threshold
RAPGEF6, Q8TEU7; [1]
  pKd: below the threshold
SNX27, Q96L92; [1]
  pKd: below the threshold
GRIP1_3, Q9Y3R0; [1]
  pKd: below the threshold
NHERF3_3, Q5T2W1; [1]
  pKd: below the threshold
PARD3_3, Q8TEW0; [1]
  pKd: below the threshold
LDB3, O75112; [1]
  pKd: below the threshold
APBA3_1, O96018; [1]
  pKd: below the threshold
GRID2IP_1, A4D2P6; [1]
  pKd: below the threshold
Inadl_6, Q8NI35; [1]
  pKd: below the threshold
GRASP, Q7Z6J2; [1]
  pKd: below the threshold
LIN7C, Q9NUP9; [1]
  pKd: 3.92
MAGI3_2, Q5TCQ9; [1]
  pKd: 3.99
HTRA4, P83105; [1]
  pKd: below the threshold
CARD11, Q9BXL7; [1]
  pKd: below the threshold
NHERF2_2, Q15599; [1]
  pKd: below the threshold
MAGI2_2, Q86UL8; [1]
  pKd: 3.8
GRIP2_4, Q9C0E4; [1]
  pKd: below the threshold
GRIP2_7, Q9C0E4; [1]
  pKd: below the threshold
DLG4_1, P78352; [1]
  pKd: below the threshold

## QDEKVKESYV [ABCA1, O95477]
SHANK1, Q9Y566; [2]
  pKd: below the threshold
FRMPD2_2, Q68DX3; [2]
  pKd: 5.31
DFNB31_1, Q9P202; [2]
  pKd: 3.88
MAGI2_5, Q86UL8; [2]
  pKd: 4.58
HTRA1, Q92743; [2]
  pKd: 4.28
Inadl_2, Q8NI35; [2]
  pKd: 3.93
LIMK2, P53671; [2]
  pKd: below the threshold
NHERF4_4, Q86UT5; [2]
  pKd: below the threshold
DLG2_2, Q15700; [2]
  pKd: 4.17
RAPGEF6, Q8TEU7; [2]
  pKd: below the threshold
SNX27, Q96L92; [2]
  pKd: 5.63
GRIP1_3, Q9Y3R0; [2]
  pKd: below the threshold
NHERF3_3, Q5T2W1; [2]
  pKd: 3.51
PARD3_3, Q8TEW0; [2]
  pKd: below the threshold
LDB3, O75112; [2]
  pKd: 3.53
APBA3_1, O96018; [2]
  pKd: below the threshold
GRID2IP_1, A4D2P6; [2]
  pKd: below the threshold
Inadl_6, Q8NI35; [2]
  pKd: 4.29
GRASP, Q7Z6J2; [2]
  pKd: 3.57
LIN7C, Q9NUP9; [2]
  pKd: 4.59
MAGI3_2, Q5TCQ9; [2]
  pKd: 5.14
HTRA4, P83105; [2]
  pKd: below the threshold
CARD11, Q9BXL7; [2]
  pKd: below the threshold
NHERF2_2, Q15599; [2]
  pKd: 3.64
MAGI2_2, Q86UL8; [2]
  pKd: 4.52
GRIP2_4, Q9C0E4; [2]
  pKd: below the threshold
GRIP2_7, Q9C0E4; [2]
  pKd: 3.59
DLG4_1, P78352; [2]
  pKd: 4.52

## ARSAAASNYV [CLDN4, O14493]
SHANK1, Q9Y566; [1]
  pKd: below the threshold
FRMPD2_2, Q68DX3; [1]
  pKd: below the threshold
DFNB31_1, Q9P202; [1]
  pKd: below the threshold
MAGI2_5, Q86UL8; [1]
  pKd: below the threshold
HTRA1, Q92743; [1]
  pKd: 4.17
Inadl_2, Q8NI35; [1]
  pKd: below the threshold
LIMK2, P53671; [1]
  pKd: below the threshold
NHERF4_4, Q86UT5; [1]
  pKd: 3.92
DLG2_2, Q15700; [1]
  pKd: below the threshold
RAPGEF6, Q8TEU7; [1]
  pKd: below the threshold
SNX27, Q96L92; [1]
  pKd: 3.53
GRIP1_3, Q9Y3R0; [1]
  pKd: below the threshold
NHERF3_3, Q5T2W1; [1]
  pKd: below the threshold
PARD3_3, Q8TEW0; [1]
  pKd: 3.51
LDB3, O75112; [1]
  pKd: below the threshold
APBA3_1, O96018; [1]
  pKd: below the threshold
GRID2IP_1, A4D2P6; [1]
  pKd: below the threshold
Inadl_6, Q8NI35; [1]
  pKd: below the threshold
GRASP, Q7Z6J2; [1]
  pKd: below the threshold
LIN7C, Q9NUP9; [1]
  pKd: 3.99
MAGI3_2, Q5TCQ9; [1]
  pKd: below the threshold
HTRA4, P83105; [1]
  pKd: 3.98
CARD11, Q9BXL7; [1]
  pKd: below the threshold
NHERF2_2, Q15599; [1]
  pKd: below the threshold
MAGI2_2, Q86UL8; [1]
  pKd: 3.6
GRIP2_4, Q9C0E4; [1]
  pKd: below the threshold
GRIP2_7, Q9C0E4; [1]
  pKd: below the threshold
DLG4_1, P78352; [1]
  pKd: 3.54

## RYEDTTLVEDTVL [WNV-NS5, Q9Q6P4]
SHANK1, Q9Y566; [3]
  pKd: 4.77
FRMPD2_2, Q68DX3; [3]
  pKd: below the threshold
DFNB31_1, Q9P202; [3]
  pKd: 3.83
MAGI2_5, Q86UL8; [3]
  pKd: below the threshold
HTRA1, Q92743; [3]
  pKd: 4.58
Inadl_2, Q8NI35; [3]
  pKd: below the threshold
LIMK2, P53671; [3]
  pKd: below the threshold
NHERF4_4, Q86UT5; [3]
  pKd: below the threshold
DLG2_2, Q15700; [3]
  pKd: below the threshold
RAPGEF6, Q8TEU7; [3]
  pKd: below the threshold
SNX27, Q96L92; [3]
  pKd: 5.38
GRIP1_3, Q9Y3R0; [3]
  pKd: below the threshold
NHERF3_3, Q5T2W1; [3]
  pKd: below the threshold
PARD3_3, Q8TEW0; [3]
  pKd: 4.53
LDB3, O75112; [3]
  pKd: below the threshold
APBA3_1, O96018; [3]
  pKd: below the threshold
GRID2IP_1, A4D2P6; [3]
  pKd: below the threshold
Inadl_6, Q8NI35; [3]
  pKd: below the threshold
GRASP, Q7Z6J2; [3]
  pKd: 3.9
LIN7C, Q9NUP9; [3]
  pKd: below the threshold
MAGI3_2, Q5TCQ9; [3]
  pKd: 3.5
HTRA4, P83105; [3]
  pKd: below the threshold
CARD11, Q9BXL7; [3]
  pKd: below the threshold
NHERF2_2, Q15599; [3]
  pKd: 4.89
MAGI2_2, Q86UL8; [3]
  pKd: below the threshold
GRIP2_4, Q9C0E4; [3]
  pKd: below the threshold
GRIP2_7, Q9C0E4; [3]
  pKd: below the threshold
DLG4_1, P78352; [3]
  pKd: below the threshold

## NISYRRESAI [KCNJ4, P48050]
SHANK1, Q9Y566; [1]
  pKd: below the threshold
FRMPD2_2, Q68DX3; [1]
  pKd: below the threshold
DFNB31_1, Q9P202; [1]
  pKd: 4.29
MAGI2_5, Q86UL8; [1]
  pKd: below the threshold
HTRA1, Q92743; [1]
  pKd: below the threshold
Inadl_2, Q8NI35; [1]
  pKd: below the threshold
LIMK2, P53671; [1]
  pKd: below the threshold
NHERF4_4, Q86UT5; [1]
  pKd: below the threshold
DLG2_2, Q15700; [1]
  pKd: 3.86
RAPGEF6, Q8TEU7; [1]
  pKd: below the threshold
SNX27, Q96L92; [1]
  pKd: below the threshold
GRIP1_3, Q9Y3R0; [1]
  pKd: below the threshold
NHERF3_3, Q5T2W1; [1]
  pKd: below the threshold
PARD3_3, Q8TEW0; [1]
  pKd: below the threshold
LDB3, O75112; [1]
  pKd: below the threshold
APBA3_1, O96018; [1]
  pKd: below the threshold
GRID2IP_1, A4D2P6; [1]
  pKd: below the threshold
Inadl_6, Q8NI35; [1]
  pKd: below the threshold
GRASP, Q7Z6J2; [1]
  pKd: below the threshold
LIN7C, Q9NUP9; [1]
  pKd: below the threshold
MAGI3_2, Q5TCQ9; [1]
  pKd: 4.9
HTRA4, P83105; [1]
  pKd: below the threshold
CARD11, Q9BXL7; [1]
  pKd: below the threshold
NHERF2_2, Q15599; [1]
  pKd: below the threshold
MAGI2_2, Q86UL8; [1]
  pKd: 4.74
GRIP2_4, Q9C0E4; [1]
  pKd: below the threshold
GRIP2_7, Q9C0E4; [1]
  pKd: below the threshold
DLG4_1, P78352; [1]
  pKd: below the threshold
